Experimental data taken from publication PMC7359353, “Rab27a co-ordinates actin-dependent transport by controlling organelle-associated motors and track assembly proteins” (Nature Communications, 2020).
Substitutions are numbered along the chain they refer to. Like-named read-outs stand apart in the source and are kept apart here. Each block holds one molecule with its values, some of them ahead of it.

Columns and labels:
GST-Rab27a-Q78L = target: T1, GST-Rab27a-Q78L (UniProt P23640 1-221, Q78L); assay: pull-down; quantitative GST pull-down: increasing concentrations of GST-Rab27a-Q78L on beads, HEK293 lysate (GFP-SPIRE1-MSFH ~50 nM); GFP depletion from the supernatant measured by fluorospectrometry at 20 °C; fraction bound fitted for Kd
T1 construct: Rab27a; rat Rab27a is stated only for the BiFC constructs; also called GTP-locked Rab27a-Q78L; active Rab27a-Q78L; source: E. coli Rosetta, purified (GSH-Sepharose 4B, size-exclusion chromatography)
T1 sequence (looked up): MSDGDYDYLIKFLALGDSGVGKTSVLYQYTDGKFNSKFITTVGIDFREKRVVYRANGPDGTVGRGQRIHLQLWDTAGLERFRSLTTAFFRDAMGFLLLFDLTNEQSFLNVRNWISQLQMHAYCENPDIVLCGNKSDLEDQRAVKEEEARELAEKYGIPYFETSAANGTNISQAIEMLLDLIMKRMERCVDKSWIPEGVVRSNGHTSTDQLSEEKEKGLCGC

Mlph RBD (Homo sapiens) = Mlph RBD (Homo sapiens) (UniProt Q9BV36); conditions: cited from earlier work
Sequence of Mlph RBD (Homo sapiens) (Q9BV36 4-124): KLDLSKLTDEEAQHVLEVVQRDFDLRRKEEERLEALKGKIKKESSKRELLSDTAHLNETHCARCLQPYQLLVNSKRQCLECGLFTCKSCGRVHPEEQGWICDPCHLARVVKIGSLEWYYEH

[1] = target: myosin-Va GTD (Homo sapiens) (UniProt Q9Y4I1); conditions: cited from earlier work
Sequence of myosin-Va GTD (Homo sapiens) (Q9Y4I1 1448-1855): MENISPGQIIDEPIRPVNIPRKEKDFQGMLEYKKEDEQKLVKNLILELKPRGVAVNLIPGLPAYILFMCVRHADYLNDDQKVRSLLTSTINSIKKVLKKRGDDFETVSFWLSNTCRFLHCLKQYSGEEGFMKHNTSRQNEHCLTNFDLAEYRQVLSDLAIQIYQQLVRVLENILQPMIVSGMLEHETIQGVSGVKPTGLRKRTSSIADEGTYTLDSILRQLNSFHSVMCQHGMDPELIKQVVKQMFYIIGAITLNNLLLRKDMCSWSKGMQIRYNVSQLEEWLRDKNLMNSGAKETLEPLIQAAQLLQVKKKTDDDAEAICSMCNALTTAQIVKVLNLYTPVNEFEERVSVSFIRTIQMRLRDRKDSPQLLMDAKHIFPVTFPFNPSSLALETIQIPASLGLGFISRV

[2] = target: myosin-Va GTD (Homo sapiens) (UniProt Q9Y4I1); conditions: cited from earlier work; remark: listed apart in the source
vYCE-Rab27a Q78L = target: T2, vYCE-Rab27a Q78L (rat, UniProt P23640 1-221, Q78L); assay: split reporter (BiFC, NanoBiT); BiFC in living HEK293a cells: vYNE-SPIRE1/2 and vYCE-Rab27a co-expressed with mCherry; vYFP signal normalised to mCherry, 48 h after transfection; conditions: partners not purified
T2 construct: rat Rab27a; also called Q78L mutant; source: HEK293a, transfected, in living cells
T2 sequence (looked up): T1 sequence (looked up)

vYCE-Rab27a wild type = target: T3, vYCE-Rab27a wild type (rat, UniProt P23640 1-221); assay: as above; conditions: partners not purified
T3 construct: rat Rab27a; also called wild-type Rab27a; WT; source: HEK293a, transfected, in living cells
T3 sequence (looked up): T1 sequence (looked up) with L78Q

Molecule: Rab27a (from UniProt P51159)
- Kd (Mlph RBD (Homo sapiens)): 112 nM

Molecule: Mlph (from UniProt Q9BV36)
- Kd [1]: 500 nM

Molecule: SPIRE2 (from UniProt Q8WWL2)
- Kd [2]: 900 nM

B1: GFP-SPIRE1-MSFH (domain or fragment)
chain: PEEIRRSRLDVTTPESTKNLVESSMVNGGLTSQTKENGLSTSQQVPAQRKKLLRAPTLAELDSSESEEETLHKSTSSSSVSPSFPEEPVLEAVSTRKKPPKFLPISSTPQPERRQPPQRRHSIEKETPTNVRQFLPPSRQSSRSLEEFCYPVECLALTVEEVMHIRQVLVKAELEKYQQYKDIYTALKKGKLCFCCRTRRFSFFTWSYTCQFCKRPVCSQCCKKMRLPSKPYSTLPIFSLGPSALQRGESSMRSEKPSTAHHRPLRSIARFSSKSKSMDKSDEELQFPKELMEDWSTMEVCVDCKKFISEIISSSRRSLVLANKRARLKRKTQSFYMSSPGPSEYCPSERTISEI
modifications: Limits are not in the text (Fig. 6a / Supplementary Table 9). By convention, the start is just after the last WH2 (ends at 386) and the end is the C-terminus. NM_020148.2 is taken as the 742-aa …
- Kd (GST-Rab27a-Q78L; one partner purified): 707 ± 155 nM

Other lines, results leading:

- Kd (GST-Rab27a-Q78L): 143 nM
Molecule: GFP-Mlph-RBD (domain or fragment)

- mean normalised BiFC (% max) (vYCE-Rab27a Q78L): 85.2 % max
- mean normalised BiFC (% max) (vYCE-Rab27a wild type): 85.4 % max
B2: vYNE-SPIRE2 (natural protein, human, UniProt Q8WWL2 1-714, looked up)
chain: MARAGSCGGAAAGAGRPEPWELSLEEVLKAYEQPLNEEQAWAVCFQGCRGLRGSPGRRLRDTGDLLLRGDGSVGAREPEAAEPATMVVPLASSEAQTVQSLGFAIYRALDWGLDESEERELSPQLERLIDLMANNDSEDSGCGAADEGYGGPEEEEEAEGVPRSVRTFAQAMRLCAARLTDPRGAQAHYQAVCRALFVETLELRAFLARVREAKEMLQKLREDEPHLETPRAELDSLGHTDWARLWVQLMRELRRGVKLKKVQEQEFNPLPTEFQLTPFEMLMQDIRARNYKLRKVMVDGDIPPRVKKDAHELILDFIRSRPPLKQVSERRLRPLPPKQRSLHEKILEEIKQERRLRPVRGEGWAARGFGSLPCILNACSGDAKSTSCINLSVTDAGGSAQRPRPRVLLKAPTLAEMEEMNTSEEEESPCGEVTLKRDRSFSEHDLAQLRSEVASGLQSATHPPGGTEPPRPRAGSAHVWRPGSRDQGTCPASVSDPSHPLLSNRGSSGDRPEASMTPDAKHLWLEFSHPVESLALTVEEVMDVRRVLVKAEMEKFLQNKELFSSLKKGKICCCCRAKFPLFSWPPSCLFCKRAVCTSCSIKMKMPSKKFGHIPVYTLGFESPQRVSAAKTAPIQRRDIFQSLQGPQWQSVEEAFPHIYSHGCVLKDVCSECTSFVADVVRSSRKSVDVLNTTPRRSRQTQSLYIPNTRTLDFK
notes: human SPIRE2, cDNA AJ422077; also called SPIRE2 (BiFC); source: HEK293a, transfected, in living cells; not shown: enhanced Venus YFP N-terminus fragment (amino acids 1-173)

- mean normalised BiFC (% max) (vYCE-Rab27a Q78L): 75.2 % max
- mean normalised BiFC (% max) (vYCE-Rab27a wild type): 89.3 % max
B3: vYNE-SPIRE1 (natural protein, human, UniProt Q08AE8-2 1-742, looked up)
chain: MAQAAGPAGGGEPRTEAVGGEGPREPGAAGGAAGGSRDALSLEEILRLYNQPINEEQAWAVCYQCCGSLRAAARRRQPRHRVRSAAQIRVWRDGAVTLAPAADDAGEPPPVAGKLGYSQCMETEVIESLGIIIYKALDYGLKENEERELSPPLEQLIDHMANTVEADGSNDEGYEAAEEGLGDEDEKRKISAIRSYRDVMKLCAAHLPTESDAPNHYQAVCRALFAETMELHTFLTKIKSAKENLKKIQEMEKSDESSTDLEELKNADWARFWVQVMRDLRNGVKLKKVQERQYNPLPIEYQLTPYEMLMDDIRCKRYTLRKVMVNGDIPPRLKKSAHEIILDFIRSRPPLNPVSARKLKPTPPRPRSLHERILEEIKAERKLRPVSPEEIRRSRLDVTTPESTKNLVESSMVNGGLTSQTKENGLSTSQQVPAQRKKLLRAPTLAELDSSESEEETLHKSTSSSSVSPSFPEEPVLEAVSTRKKPPKFLPISSTPQPERRQPPQRRHSIEKETPTNVRQFLPPSRQSSRSLEEFCYPVECLALTVEEVMHIRQVLVKAELEKYQQYKDIYTALKKGKLCFCCRTRRFSFFTWSYTCQFCKRPVCSQCCKKMRLPSKPYSTLPIFSLGPSALQRGESSMRSEKPSTAHHRPLRSIARFSSKSKSMDKSDEELQFPKELMEDWSTMEVCVDCKKFISEIISSSRRSLVLANKRARLKRKTQSFYMSSPGPSEYCPSERTISEI
notes: human SPIRE1, cDNA NM_020148.2; also called SPIRE1 (BiFC); source: HEK293a, transfected, in living cells; not shown: enhanced Venus YFP N-terminus fragment (amino acids 1-173)
